# Source: the domain aggregation screens of Martell et al. (2025)
# Assay: soluble fraction after stress (log2 fold change); higher = more stays soluble; pooled small domains, quantitative proteomics
# Settings: stress: 50 degC
# Method in brief: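 After stress at 50°C, the amount of each protein still soluble was measured. This was done on pooled custom libraries of small protein domains, using high-throughput quantitative proteomics. The figure given is a base-two log fold change and stands for aggregation propensity, with higher values meaning more protein stays in solution.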
row,Sequence,soluble fraction (log2)
1,HMRGGWESLTDREREIAVLAAEGHSNRTIASTLFISDRTVQSHVSRALRALGVDSRTGIPSLVTTATR,-0.0688
2,HMEKDEYIFVDIDGAVFNPGVYKLIAGSRVIDAINLAGGLKEKAFTQNLNKARKLVDGEKIYIYLEGDEE,-0.585
3,HMDSESGAIIRRAVAQLAPKFRSTIVLRLIEGYSTEETAQILQLPVGTVLSRLARAKVQLMNLLTPYKEL,-0.126
4,HMESLNDRIKLVFKDSGLTQMDISKRLNIAQSSVSGIISGKANPSKRTLADIADRFDVNLEWLRDGTGPMK,0.337
5,HMNTVAKELATQATQAKKRAFLDAYAETGIIKRAAEIAGIERKSHYLWLEKDPEYVEAFKSAGEQ,0.301
6,HMKFPPASDIRRMRKAIDVTQTELAKQSGVSQSTIAKIERGRISASYDTVVKLFETLDEMAK,-0.141
7,HMITNESEIERIVEAIISKNPESIAQYRSGITKVLGFLVGQVMKETKGRANPALVNRIIISKME,-0.281
8,HMTRQKEAILALLTDSRGEALSASELLARLTRSGSSIGRTTVYRLLSQLVDDGVVRAWRDASRGITLYELS,-0.113
9,HMQKEMDIVLQINGKMRSNLKVSSTANDDEIIKTAIESDAYKKFSLGLRIQKTIIVPNRLINIVLEK,-0.985
10,HMQIKEVDYGTFISMTEDGEIGRVEIQQQENTILFTDEDETAVYKTAMVEDDQLTQRLYDAGISFYGEE,-0.0136
11,HMTTKYMVLVNWVKEKVRTNELKTGEKLYSEHEFSRMFHMSRQTVRHGISILERENIVERRQGSGTFIKDA,-3.06
12,HMTTEPYILTRMPDGSIKAEPNLNYKGPEQKPGSNIQVKGADGRIYLVPIDGQGKPGKPQLVD,0.116
13,HMRLPQEVWEKIRAAYEAHGLSFSELAEMYGVNKSNISRRAKAEGWNQAETQRLITATVENE,0.267
14,HMNPETIHNDYKAFIKFAFSGLSYYSKVWNQNREMITPGLLETLWQKYRHLSIGEIETILEKIIKEG,-1.88
15,HMLFVKLSDAQRSMFGAKLARDARIQSEYAQKLPSENYEVFGKALADMLLDETHFKTFYPLLVEYGYTQPK,-0.406
16,HMSDLVATKEQVVEAYKYGLGLGLDNSTLKMLLFDIRGEDVADQDKISDGMTVSEIEIWKEGMRTIAEEYL,-0.508
17,HMLLQTAVISTDIVNMRAEPTTNSSVIRKLTKGSDITINQEKDGWYKISDDQGNSGWIVTWAAKPT,0.0497
18,HMEAYLPVTVVSDGKILTGNLEKAGKNEKWLENVLSELKTDVKNTLLLTVDPKDGLIFYPKG,0.0932
19,HMQAPIFMNETDGKWYFREKYLNDNHEIAYRVHPEGYDQMEDALRNSVNALNEFAAEMKELRKQV,-0.0683
20,HMNADAPWSPFSPGFTGPMNRPVIGLVTKADLANPQRISLVESWLVQAGAQKVFVTSALENTGVDEMFIFL,-0.124
21,HMDGLPYPEAAEEPIAQVARNLGMDATRVSIALQEAKLIFRNLDETLAEIAANNGTTPQVVYDAIRHLEPP,-0.095
22,HMEREQNIAQGREVVQRELKRLGLTDVFTVEDIGRALKFDDIDEFLSKVGFGDIQTAKITGAIALMQQALR,0.0611
23,HMVRGNLAEELLKLREEEGISFQEAGARSGIARSTISQVVNQGLRLKPNQEESLWRVIEEVRGVKER,0.046
24,HMNSVSIAPEMLNWVIAHIQMNSLPKQIVEHLTAWISGQKEPTFNQIEKVSRATGIPLGYFFLEQPPKE,-2.03
25,HMKLARGEFEIMAKFIKEISGISLEQNKTYLIESRLSDLAESEGVKTFSDFFFKAKFNKILKEKIIDAI,-0.946

row,Sequence,soluble fraction (log2)
1,HMARSVAEFVERGRSGGSLERPKLQRMLEYIQDRPVDFVIVHKIDRLARNRADDAAITKTIRGAGAYLVST,-0.0402
2,HMAPVTPEERAQAMEEYKAMVTIEGYTPPKNIIEQNYKRGLWSETMLNMAVTKGAITEAEKLEIMN,0.124
3,HMSPVKAPLPGVVLDIHVSVGQEVKASDTVVTLEAMKMENAIKAGVDGKVASISVGKGDSVLEGAVLLTI,0.0738
4,HMEQAAQPQTGFDPRRLKAGDAVHLLALDQRGVLLEDPKPGAESAPVSVGVAGVRVVVPLREMEALPAG,0.157
5,HMPAAPVFLQKDLLDAGLIGQADSAARREKLGKILGIGYGNGKVMLQRLNSFGIERDAFEQAVQE,0.0718
6,HMKLHFTINGVHYTWYKQFIRGIQIRELGNIPREDELYLDLPDGWKDDFIEDDEIVDLARPGVEHFISRAK,-1.78
7,HMLKGTVKWFNESKGFGFIEQEEGKDVFVHYSAITGSGFKTLNEGDKVQFEIVDGPKGPAAANVSK,-0.0666
8,HMIFTPNGDRVNDVFEIEMGVKLEFQIIILNQQNQTVFKSADPDFKWDGTMLNGEPAPSGTYLYYFSAKD,0.0847
9,HMDGEFINLKNRAGTEIEARILNYQNGQVKLERKDGVTFVVSISMFDAKSVIAINHKIAEIIDT,-1.37
10,HMSKEEAIQAMKEGKKVTHRFFSSDEWMTIENGFLLLEDGVRISLEDFFNFRSDSLWDNGYELYNPH,-0.162
11,HMEPEDVIAMERYLASGAIKGIGVTLAGRIIKKFQKETFHIIEEEPERLSEVKGISEKLAREIYQQFTQK,-0.873
12,HMDGSEYAGTVRLGDGTLQPVPRFETSNSETPKYLYLVMDVTHDPPVYILEHESAELKSVLGGLVLIGSYS,0.0759
13,HMNSLGYSDFVVDVQNERVASVVIEGLIINGERRDGTKFRTVLPTIGDQRLMDDLINHNVKVLARE,0.236
14,HMTPPLSKIRNMTPDQQRSSVIEARKKGYNLLQLEGLAKAQGATPADLLVLRNAWAQSEFDQKR,0.149
15,HMSVSVEEDADGRVWVYYQDQKMDITDLFDENGVYGFNLEKGDRTVYVEVTKNADGTYSFTQTD,-0.0127
16,HMAEKEYYYATDALNLRQGPGMEHTVKGEVVLGERVALLGLEGKWAKIQNAQGTTGYVFSAYLAPS,0.0931
17,HMDEAAGVLTQLRAFIAASNLSPGLRLPPERELAEQLGVTRAELRKALAVLEAEGLLWRQVGKGTFYGARP,-0.481
18,HMENNIILNYVKDNLNITEKDAKDLIELLGSDYYHIKNETNKIAAFLDGQPYSFEKIKNLISIDKEY,0.0808
19,HMNSQSGKGGVGYILETKYGLNLPPKMREAMGYAAKGVSDHLHKELHPDEIFDLFKKTFENVGQPYS,-0.0272
20,HMNQADNFNSLTKREKDVLLLVTQGESNKSIADKLVLSEVTVKSHLNSIFKKLNVTNRTQAVLVAMQMNLV,0.03
21,HMEELLVAVKADGSIWADGRPITPDGLASFIDSKPADAVLNLAVDKKAPFAAFVKVVDVAKEKKSGRFVIR,0.0577
22,HMHRFAVLDTVREVAAGGVAATLSIGVGRDADSFDALFKNASMALEMALSRGGDQAVVKDRMNFQFYGG,0.0659
23,HMKGKWKPIILWQLSKAPQSLSGLRHSIAGISQKMLIQHLNELIHFGFVVRTTFEGYPLKVEYDLTDRGR,-0.231
24,HMNDIDKFVAALVDQDTMAGTNRAFDENDIQTMKNMSSIEDVKQYAVANGLSSGKVNNALISAGL,0.156
25,HMAPLRTQYVNVNYANAAEIKTLISGADKEVGSLLSERGSVVVDKRTNTLIIQDTQARLNDIGDLIEQLD,-0.0505

row,Sequence,soluble fraction (log2)
1,HMNPNYIKKLREKNQLTQEYLAAQIGVSRPTYAQIEQGQRGLTVTEAKKMADIFSLALDDFLAEKN,0.0013
2,HMSDEAGKVLQLLRENGGYLPYNDRSDPEDIYAFFSMSKKTFKMTAGNLYKQKKIIFTNTGIKLTE,-0.856
3,HMYKTKVDIAYDMLMERITEGVYKPGEKLVITHISKELGISDIPVREAIRRLESEGYVKILPNQGAIVYD,-0.395
4,HMRAEELEQFVERLKNEVMNNFPLKELSDNELREKIENLVEIRLANVYVSIEQRVAIAEQIYSSIR,-0.0429
5,HMHMSKKLADSISALRKKNGLSQEQLAEKIGISRQTVSNWERGIATPDVETLNLISKLFDEDLSVMING,0.199
6,HMTRAEVQALLEKQAKDFEVEVVHRGWKKTVQTPEFAGWYSQQPAEIKALAESDDPAVAIRMLDLFSGTK,-0.0852
7,HMEAEPRLLDLPPGTRAGRLDKVLAQLLPEHSRSRLQGWIERGGVLVNGKEASVRQVVGPGDQLTVWEEAA,-0.0918
8,HMNASITVPDVRNLTVKQASEQLLASGFTPIPYAATKDGVGNDIVYAQDPPPSVLARSGDQITITYNPA,0.0329
9,HMENHILIIDDDLMLLKTAEEILSDQYNVSVAKSGIQALNLLNKNIIPDLILLDIDMPQMDGYETL,-0.0279
10,HMGSLQPLLLAAIDALQTHIRSGLPFRVEERLAELDQFRTELQNGSVPPQRGVNRLWAFYEDEFRL,-0.798
11,HMTELIEDYVELIGDLIRHRGEARAADIANRMAVSQATVSKMIRRLNELGLVTSKPYRSLFLTDEGQKMAE,-0.474
12,HMGSLAVVPSLTGKTLQEAQSKAADYGLALEIEGYVASTAVDYGRIVSQSPDAGFSVKSGSSVKVSVSAG,0.117
13,HMSSFSESFHKALNNLDDKHKSVFSLRHFEGFSMKEIAETLNINEGTVKSRLFYATKTLAGALKEF,-2.74
14,HMRDGYEKPTEVGEGGRNPAMLSYIGHLRAKGHLSEEDIRSMAHGFNATTFDPPLDRDEVDGLVSRY,0.124
15,HMTDLDVAVTMTVALEEAVNGATRRVRLPNGKELNVKIPAGVAAGQQIRLKGQGETAPGHRPGDVLITVNI,-0.262
16,HMHRGEIVDGVIASVNPRSILIDIGGKSDALVHPRELERMSDEDLRSLKPGQDVSVYVIETDSDGTMLVSL,-0.0402
17,HMSNQLAVPDVTNMKANAAADRLRQQGLRVELKTESSNTVPRGMAIRTDPAASTMVARGGRVTLIISSGKG,-0.000921
18,HMINGTITFYDDTTLKGELSSLDTKYLFIIPNGLVMPEKIAVSDIEYFNLDNGITLIQDGISKQTY,-1.25
19,HMADEIQIGLQKAIQSLPEKQKLVFSMRYYDEIPYDEMSKILDMSVGTLKTNYHYAKQKIEDFLQNH,-1.05
20,HMRSRHYRFSTPFLDRLIAEIDWNSDNALSIFNQKLVHFDFLKYFSAIQPGSIVEIENLNFIWTGKRLEAH,-2.55
21,HMEDYYKILGVQSNSNPDDIKKAYRKLSLKHHPDRGGDASEFKKINEAYQTLGTPEKRKMYDMQQNN,-0.0117
22,HMSSKSDQLYLQLRRRISAMKDGEPFPTVRQLMTEYQVSQSTVTPAINQLKEKGLIEAYVGRGSFVSKK,-0.615
23,HMELGWYVRLRRRELGLSVTALAEKAGMSQSYLSQIETGDRGNPSPESLRSLAEALEVSPRELESLV,-0.331
24,HMDPLADLFSRIRNAQMRNKKVVTSPASKLRAGILEVLAKEGYIRGYAMTQHASGKNELDIELN,-1
25,HMKARLRRVFQIYYGDAYSIMKALKETFPLQTIVHEPRTNSIVVDTPDEETATKIGDVVSAL,-0.392
